Reference: US20190177382A1 (US Dept. of Health and Human Services, published 2019)

Molecular target: T1, KDR ectodomain-IgG fusion protein (UniProt P35968 20-764, limits assumed)
T1 construct: extracellular domain; also called KDR-Ig ectodomain; not shown: IgG portion of the fusion
Experiment: electrochemiluminescent saturation binding; VEGF captured by a non-neutralizing anti-VEGF mAb, KDR-Ig ectodomain titrated, detected with tagged anti-KDR

T1 sequence (P35968 20-764 limits assumed): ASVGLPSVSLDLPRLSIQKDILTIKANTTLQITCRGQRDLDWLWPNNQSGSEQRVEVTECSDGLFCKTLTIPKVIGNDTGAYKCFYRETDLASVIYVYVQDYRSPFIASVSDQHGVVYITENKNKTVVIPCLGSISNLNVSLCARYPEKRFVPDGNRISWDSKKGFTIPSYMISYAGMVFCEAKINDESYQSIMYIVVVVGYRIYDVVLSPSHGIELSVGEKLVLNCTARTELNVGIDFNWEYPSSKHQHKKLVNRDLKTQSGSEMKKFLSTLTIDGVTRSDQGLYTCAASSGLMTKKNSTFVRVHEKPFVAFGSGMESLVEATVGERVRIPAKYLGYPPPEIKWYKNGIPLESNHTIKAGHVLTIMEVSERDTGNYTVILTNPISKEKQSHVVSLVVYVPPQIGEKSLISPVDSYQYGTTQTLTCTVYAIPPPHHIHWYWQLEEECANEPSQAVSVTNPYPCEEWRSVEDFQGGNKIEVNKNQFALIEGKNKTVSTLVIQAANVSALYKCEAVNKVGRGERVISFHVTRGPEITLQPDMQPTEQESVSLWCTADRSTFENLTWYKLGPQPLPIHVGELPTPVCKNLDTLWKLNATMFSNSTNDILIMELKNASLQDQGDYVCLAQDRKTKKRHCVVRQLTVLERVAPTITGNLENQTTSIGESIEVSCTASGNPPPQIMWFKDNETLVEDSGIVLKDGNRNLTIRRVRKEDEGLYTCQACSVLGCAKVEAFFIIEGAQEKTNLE

Kd: ~0.019 nM
B1: VEGF165 3S (human VEGF165 R123E/R124E/R159E) (ligand)
chain: APMAEGGGQNHHEVVKFMDVYQRSYCHPIETLVDIFQEYPDEIEYIFKPSCVPLMRCGGCCNDEGLECVPTEESNITMQIMRIKPHQGQHIGEMSFLQHNKCECRPKKDRARQENPCGPCSEEEKHLFVQDPQTCKCSCKNTDSRCKARQLELNERTCECDKPRR
notes: Secreted into conditioned media by 293/KDR transfectants, made with the native signal peptide; also called VEGF 3S
